In patent publication US12630600B2 (MEDIMMUNE LIMITED, priority 2022, dated 2026):
Starred links: 1 amine or outer side, 2 acyl side, 3 side chain; linkers in the order of their positions; H or OH if unused. Non-standard residues stand in square brackets, D forms with d. Groups on a side chain read outwards from the residue. No end group written: not given here. *: point of attachment. C20 diacid = O=C(O)CCCCCCCCCCCCCCCCCCC(=O)*; C18 diacid = O=C(O)CCCCCCCCCCCCCCCCC(=O)*; γGlu = O=C(O)[C@H](CCC(=O)[*:2])N[*:1]; αMeF = C[C@](N)(Cc1ccccc1)C(=O)O; AEEA = NCCOCCOCC(=O)O; Aib = CC(C)(N)C(=O)O

Assays:
human GLP-1 receptor = human GLP-1 receptor (human, UniProt P43220); test: cell-based or functional assay
human glucagon receptor = human glucagon receptor (human, UniProt P47871); test: cell-based or functional assay

| cAMP production EC50 (human GLP-1 receptor) | cAMP production EC50 (human glucagon receptor) | Binder |
| --- | --- | --- |
| 0.0529 nM | 0.0866 nM | H[Aib]QGTFTSDVSK[αMeF]LDTK([AEEA-AEEA-γGlu-C20 diacid])RARDFVAWLLE[Aib]G-NH2 [Peptide 507] |
| 0.0821 nM | 0.175 nM | H[Aib]QGTFTSDVSK[αMeF]LDTK([AEEA-AEEA-γGlu-C20 diacid])RARDFVQWLLR[Aib]A-OH (N-terminus assumed; SMILES CC(C)C[C@H](NC(=O)[C@H](Cc1c[nH]c2ccccc12)NC(=O)[C@H](CCC(N)=O)NC(=O)[C@@H](NC(=O)[C@H](Cc1ccccc1)NC(=O)[C@H](CC(=O)O)NC(=O)[C@H](CCCNC(=N)N)NC(=O)[C@H](C)NC(=O)[C@H](CCCNC(=N)N)NC(=O)[C@H](CCCCNC(=O)COCCOCCNC(=O)COCCOCCNC(=O)CC[C@H](NC(=O)CCCCCCCCCCCCCCCCCCC(=O)O)C(=O)O)NC(=O)[C@@H](NC(=O)[C@H](CC(=O)O)NC(=O)[C@H](CC(C)C)NC(=O)[C@](C)(Cc1ccccc1)NC(=O)[C@H](CCCCN)NC(=O)[C@H](CO)NC(=O)[C@@H](NC(=O)[C@H](CC(=O)O)NC(=O)[C@H](CO)NC(=O)[C@@H](NC(=O)[C@H](Cc1ccccc1)NC(=O)[C@@H](NC(=O)CNC(=O)[C@H](CCC(N)=O)NC(=O)C(C)(C)NC(=O)[C@@H](N)Cc1c[nH]cn1)[C@@H](C)O)[C@@H](C)O)C(C)C)[C@@H](C)O)C(C)C)C(=O)N[C@@H](CC(C)C)C(=O)N[C@@H](CCCNC(=N)N)C(=O)NC(C)(C)C(=O)N[C@@H](C)C(=O)O) [Peptide 502] |
| 0.594 nM | 3.02 nM | H[Aib]QGTFTSDVSK[αMeF]LESK([AEEA-AEEA-γGlu-C20 diacid])RAQDFVRWLL[Aib]TE-OH (N-terminus assumed; SMILES CC(C)C[C@H](NC(=O)[C@H](Cc1c[nH]c2ccccc12)NC(=O)[C@H](CCCNC(=N)N)NC(=O)[C@@H](NC(=O)[C@H](Cc1ccccc1)NC(=O)[C@H](CC(=O)O)NC(=O)[C@H](CCC(N)=O)NC(=O)[C@H](C)NC(=O)[C@H](CCCNC(=N)N)NC(=O)[C@H](CCCCNC(=O)COCCOCCNC(=O)COCCOCCNC(=O)CC[C@H](NC(=O)CCCCCCCCCCCCCCCCCCC(=O)O)C(=O)O)NC(=O)[C@H](CO)NC(=O)[C@H](CCC(=O)O)NC(=O)[C@H](CC(C)C)NC(=O)[C@](C)(Cc1ccccc1)NC(=O)[C@H](CCCCN)NC(=O)[C@H](CO)NC(=O)[C@@H](NC(=O)[C@H](CC(=O)O)NC(=O)[C@H](CO)NC(=O)[C@@H](NC(=O)[C@H](Cc1ccccc1)NC(=O)[C@@H](NC(=O)CNC(=O)[C@H](CCC(N)=O)NC(=O)C(C)(C)NC(=O)[C@@H](N)Cc1c[nH]cn1)[C@@H](C)O)[C@@H](C)O)C(C)C)C(C)C)C(=O)N[C@@H](CC(C)C)C(=O)NC(C)(C)C(=O)N[C@H](C(=O)N[C@@H](CCC(=O)O)C(=O)O)[C@@H](C)O) [Peptide 509] |
| 0.0265 nM | 0.0756 nM | H[Aib]QGTFTSDVSK[αMeF]LDTK([AEEA-AEEA-γGlu-C18 diacid])RARDFVQWLLR[Aib]A-OH (N-terminus assumed; SMILES CC(C)C[C@H](NC(=O)[C@H](Cc1c[nH]c2ccccc12)NC(=O)[C@H](CCC(N)=O)NC(=O)[C@@H](NC(=O)[C@H](Cc1ccccc1)NC(=O)[C@H](CC(=O)O)NC(=O)[C@H](CCCNC(=N)N)NC(=O)[C@H](C)NC(=O)[C@H](CCCNC(=N)N)NC(=O)[C@H](CCCCNC(=O)COCCOCCNC(=O)COCCOCCNC(=O)CC[C@H](NC(=O)CCCCCCCCCCCCCCCCC(=O)O)C(=O)O)NC(=O)[C@@H](NC(=O)[C@H](CC(=O)O)NC(=O)[C@H](CC(C)C)NC(=O)[C@](C)(Cc1ccccc1)NC(=O)[C@H](CCCCN)NC(=O)[C@H](CO)NC(=O)[C@@H](NC(=O)[C@H](CC(=O)O)NC(=O)[C@H](CO)NC(=O)[C@@H](NC(=O)[C@H](Cc1ccccc1)NC(=O)[C@@H](NC(=O)CNC(=O)[C@H](CCC(N)=O)NC(=O)C(C)(C)NC(=O)[C@@H](N)Cc1c[nH]cn1)[C@@H](C)O)[C@@H](C)O)C(C)C)[C@@H](C)O)C(C)C)C(=O)N[C@@H](CC(C)C)C(=O)N[C@@H](CCCNC(=N)N)C(=O)NC(C)(C)C(=O)N[C@@H](C)C(=O)O) [Peptide 501] |
| 0.124 nM | 0.551 nM | H[Aib]QGTFTSDVSK[αMeF]LESK([AEEA-AEEA-γGlu-C20 diacid])RAQDFVRWLLE[Aib]K-OH (N-terminus assumed; SMILES CC(C)C[C@H](NC(=O)[C@H](Cc1c[nH]c2ccccc12)NC(=O)[C@H](CCCNC(=N)N)NC(=O)[C@@H](NC(=O)[C@H](Cc1ccccc1)NC(=O)[C@H](CC(=O)O)NC(=O)[C@H](CCC(N)=O)NC(=O)[C@H](C)NC(=O)[C@H](CCCNC(=N)N)NC(=O)[C@H](CCCCNC(=O)COCCOCCNC(=O)COCCOCCNC(=O)CC[C@H](NC(=O)CCCCCCCCCCCCCCCCCCC(=O)O)C(=O)O)NC(=O)[C@H](CO)NC(=O)[C@H](CCC(=O)O)NC(=O)[C@H](CC(C)C)NC(=O)[C@](C)(Cc1ccccc1)NC(=O)[C@H](CCCCN)NC(=O)[C@H](CO)NC(=O)[C@@H](NC(=O)[C@H](CC(=O)O)NC(=O)[C@H](CO)NC(=O)[C@@H](NC(=O)[C@H](Cc1ccccc1)NC(=O)[C@@H](NC(=O)CNC(=O)[C@H](CCC(N)=O)NC(=O)C(C)(C)NC(=O)[C@@H](N)Cc1c[nH]cn1)[C@@H](C)O)[C@@H](C)O)C(C)C)C(C)C)C(=O)N[C@@H](CC(C)C)C(=O)N[C@@H](CCC(=O)O)C(=O)NC(C)(C)C(=O)N[C@@H](CCCCN)C(=O)O) [Peptide 504] |
| 0.0679 nM | 2.8 nM | H[Aib]QGTFTSDVSK[αMeF]LESK([AEEA-AEEA-γGlu-C20 diacid])RAQDFVRWLVE[Aib]G-NH2 (N-terminus assumed; SMILES CC(C)C[C@H](NC(=O)[C@H](Cc1c[nH]c2ccccc12)NC(=O)[C@H](CCCNC(=N)N)NC(=O)[C@@H](NC(=O)[C@H](Cc1ccccc1)NC(=O)[C@H](CC(=O)O)NC(=O)[C@H](CCC(N)=O)NC(=O)[C@H](C)NC(=O)[C@H](CCCNC(=N)N)NC(=O)[C@H](CCCCNC(=O)COCCOCCNC(=O)COCCOCCNC(=O)CC[C@H](NC(=O)CCCCCCCCCCCCCCCCCCC(=O)O)C(=O)O)NC(=O)[C@H](CO)NC(=O)[C@H](CCC(=O)O)NC(=O)[C@H](CC(C)C)NC(=O)[C@](C)(Cc1ccccc1)NC(=O)[C@H](CCCCN)NC(=O)[C@H](CO)NC(=O)[C@@H](NC(=O)[C@H](CC(=O)O)NC(=O)[C@H](CO)NC(=O)[C@@H](NC(=O)[C@H](Cc1ccccc1)NC(=O)[C@@H](NC(=O)CNC(=O)[C@H](CCC(N)=O)NC(=O)C(C)(C)NC(=O)[C@@H](N)Cc1c[nH]cn1)[C@@H](C)O)[C@@H](C)O)C(C)C)C(C)C)C(=O)N[C@H](C(=O)N[C@@H](CCC(=O)O)C(=O)NC(C)(C)C(=O)NCC(N)=O)C(C)C) [Peptide 508] |
| 0.162 nM | 0.149 nM | H[Aib]QGTFTSDVSK[αMeF]LDTK([AEEA-AEEA-γGlu-C20 diacid])RARDFVAWLLE[Aib]G-OH (N-terminus assumed; SMILES CC(C)C[C@H](NC(=O)[C@H](Cc1c[nH]c2ccccc12)NC(=O)[C@H](C)NC(=O)[C@@H](NC(=O)[C@H](Cc1ccccc1)NC(=O)[C@H](CC(=O)O)NC(=O)[C@H](CCCNC(=N)N)NC(=O)[C@H](C)NC(=O)[C@H](CCCNC(=N)N)NC(=O)[C@H](CCCCNC(=O)COCCOCCNC(=O)COCCOCCNC(=O)CC[C@H](NC(=O)CCCCCCCCCCCCCCCCCCC(=O)O)C(=O)O)NC(=O)[C@@H](NC(=O)[C@H](CC(=O)O)NC(=O)[C@H](CC(C)C)NC(=O)[C@](C)(Cc1ccccc1)NC(=O)[C@H](CCCCN)NC(=O)[C@H](CO)NC(=O)[C@@H](NC(=O)[C@H](CC(=O)O)NC(=O)[C@H](CO)NC(=O)[C@@H](NC(=O)[C@H](Cc1ccccc1)NC(=O)[C@@H](NC(=O)CNC(=O)[C@H](CCC(N)=O)NC(=O)C(C)(C)NC(=O)[C@@H](N)Cc1c[nH]cn1)[C@@H](C)O)[C@@H](C)O)C(C)C)[C@@H](C)O)C(C)C)C(=O)N[C@@H](CC(C)C)C(=O)N[C@@H](CCC(=O)O)C(=O)NC(C)(C)C(=O)NCC(=O)O) [Peptide 506] |
| 0.0421 nM | 0.191 nM | H[Aib]QGTFTSDVSK[αMeF]LDTK([AEEA-AEEA-γGlu-C20 diacid])RAQDFVQWLLE[Aib]K-NH2 (N-terminus assumed; SMILES CC(C)C[C@H](NC(=O)[C@H](Cc1c[nH]c2ccccc12)NC(=O)[C@H](CCC(N)=O)NC(=O)[C@@H](NC(=O)[C@H](Cc1ccccc1)NC(=O)[C@H](CC(=O)O)NC(=O)[C@H](CCC(N)=O)NC(=O)[C@H](C)NC(=O)[C@H](CCCNC(=N)N)NC(=O)[C@H](CCCCNC(=O)COCCOCCNC(=O)COCCOCCNC(=O)CC[C@H](NC(=O)CCCCCCCCCCCCCCCCCCC(=O)O)C(=O)O)NC(=O)[C@@H](NC(=O)[C@H](CC(=O)O)NC(=O)[C@H](CC(C)C)NC(=O)[C@](C)(Cc1ccccc1)NC(=O)[C@H](CCCCN)NC(=O)[C@H](CO)NC(=O)[C@@H](NC(=O)[C@H](CC(=O)O)NC(=O)[C@H](CO)NC(=O)[C@@H](NC(=O)[C@H](Cc1ccccc1)NC(=O)[C@@H](NC(=O)CNC(=O)[C@H](CCC(N)=O)NC(=O)C(C)(C)NC(=O)[C@@H](N)Cc1c[nH]cn1)[C@@H](C)O)[C@@H](C)O)C(C)C)[C@@H](C)O)C(C)C)C(=O)N[C@@H](CC(C)C)C(=O)N[C@@H](CCC(=O)O)C(=O)NC(C)(C)C(=O)N[C@@H](CCCCN)C(N)=O) [Peptide 505] |
| 0.0812 nM | 0.0849 nM | H[Aib]QGTFTSDVSK[αMeF]LDTK([AEEA-AEEA-γGlu-C20 diacid])RAQDFVRWLLE[Aib]K-OH [Peptide 503] |
